Laboratory results as given in US20240209089A1 (SUZHOU SMARTNUCLIDE BIOPHARMACEUTICAL, published 2024).

Legend:
CD8α-Fc fusion protein [1] = target: T1, CD8α-Fc fusion protein (human); assay: ELISA on coated CD8α-Fc, relative to C2-cHis control
T1 construct: also called CD8 α-Fc protein; CD8α-Fc tag antigen
Protocol: (§1) The CD8 α-Fc protein was transiently expressed by HEK293 and purified by protein A affinity chromatography. The plate was coated with the obtained CD8α-Fc protein in a concentration of 0.5 μg/well at 4° C. overnight, and then the gradient dilution series of the obtained anti-CD8α single domain antibody protein was added to react for 1 hour at room temperature. After washing, anti-his horseradish peroxidase labeled antibody was added to react for 1 hour at room temperature. After washing, a chromogenic solution was added, and an absorption value at 450 nm was read. The data processing and plotting analysis were performed by using software SotfMaxPro v5.4. […] Of the 10 selected antibodies (see Table 5 for details), the relative activities of different anti-CD8α single domain antibodies were compared by using C2-cHis as control, so as to reflect the affinity of the antibodies on CD8α. Of the 10 tested antibodies, C37, C42, C46, S5 and S36 have relatively high binding activity.

CD8α-Fc fusion protein [2] = target: T1, CD8α-Fc fusion protein; assay: ELISA on coated CD8α-Fc, antibody after exchange into NaHCO3 buffer, relative to the uncoupled antibody as standard
Protocol: By using PD-10 column (GE), the buffer of the CD8α-cHis single domain antibody (including C37, C46 and S5) was changed to a NaHCO3 buffer solution with a certain pH, and p-SCN-Bn-NOTA (Macrocyclics, article No. B-605) was dissolved into DMSO with a concentration of 25 mg/mL, and the p-SCN-Bn-NOTA solution whose molar was twice that of lysine on the single domain antibody was added into the CD8α single domain antibody, the above materials reacted for a certain time period at room temperature, the conjugated product was purified by PD-10 column (GE) and concentrated by ultrafiltration.
The activity of the above CD8α-NOTA after labeling was determined by ELISA. The specific method is as follows: the CD8α-Fc fusion protein was placed in the coated plate in a concentration of 5 μg/well at 4° C. overnight. After blocking with 3% BSA at 37° C., samples subjected to gradient dilution (the uncoupled CD8α single domain antibody was a standard substance) were added to act for 1 hour at 37° C. Then, anti-his-HRP (purchased from Abcam Company) was added to react for 1 hour at room temperature. Then, a chromogenic solution was added, and the absorption value at 450 nm was read.

[3] = target: T2, human CD8α full-length protein (human, UniProt P01732 22-235); assay: competition radioligand binding on MC38-CD8 cells, 2 h at 4 °C; unlabeled SNA006a varied against the tracer 125I-SNA006a
T2 construct: whole, on cells; The same entry is used for MC38-CD8α transfectants and for human CD8+ T cells from peripheral blood; the assay field says which cells; also called cell surface CD8α; MC38-CD8α cells
Protocol: (§2) The 96-well cell suction filter plate was saturated with a binding buffer and dried in air before use.
(§3) After reaction for 2 hours at 4° C., the reaction solution in the suction filter plate was drained using auxiliary equipment of a vacuum pump and the suction filter plate, 200 μL of PBS buffer (0.01 M, pH=7.4) was added into each well and drained, and the cells were repeatedly washed for 6 times. After the filter membrane at the bottom of the suction filter plate was dried, the filter membrane at the bottom was collected, and a γ counter was used for measurement. Calculation and plotting were performed by using Prism 7.0 (GraphPad Software, Inc.), and the half inhibition concentration IC50 was calculated by nonlinear regression analysis. Four parallel samples were set at each experimental point, and the experiment was repeated twice. The result given in this experiment is an average value plus a standard deviation.

[4] = target: T2, human CD8α full-length protein; assay: flow cytometry on MC38-CD8α cells, secondary antibody-PE
Protocol: Mouse colon cancer MC38 cell lines stable transfected with human CD8α full-length protein gene were constructed to obtain MC38 cells (MC38-CD8α cells) stably expressing human CD8α proteins on the cell membrane. Prior to use, the cells were cultured to >90% convergence. The anti-CD8α single domain antibody was used to perform flow cytometry on these cells for quantitative analysis of indirect immunofluorescence staining so as to determine the quantity of receptors on surface of each cell.
The cells were collected and suspended to a concentration of 2.5×10⁶ cells/mL. 200 μL of cell aliquot samples were mixed with 20 μL of primary antibody, and the obtained mixture was incubated for 30 min on ice. The cells were centrifuged, washed and re-suspended, then 5 μL of secondary antibody-PE conjugate was added, and then the above mixture was incubated for 30 minutes on ice. The cells were washed twice, re-suspended and underwent flow cytometry on BD FACSCelesta™. For each tube, at least 5×10⁴ events were collected. All the analyses were single colors, and PE was detected in […].

[5] = target: T2, human CD8α full-length protein; assay: competition binding on MC38-CD8 cells, displacement of ^125I-SNA006a, 4 °C, 2 h
Protocol: as §2, §3

CD8α-Fc fusion protein [6] = target: T1, CD8α-Fc fusion protein; assay: ELISA on coated CD8α-Fc, anti-his-HRP, four-parameter fit
Protocol: as §1

CD8α-cHis fusion protein = target: T3, CD8α-cHis fusion protein (UniProt P01732 22-182); assay: BLI (ForteBio Octet), biotinylated antibody on SA sensor, CD8α-chis 6.25-100 nM
T3 construct: not shown: C-terminal His tag
Protocol: The anti-CD8α single domain antibody-biontin was fixed on an SA biological sensor. Then, CD8α-chis with a concentration of 6.25-100 nM bound to a nano antibody and then dissociated. The binding dynamic variables of four antibodies C37, C42, C46 and S5 were evaluated and determined by using Octet Data Analysis version 9.0, including Kon, Koff and Kd.

T2 sequence (P01732 22-235): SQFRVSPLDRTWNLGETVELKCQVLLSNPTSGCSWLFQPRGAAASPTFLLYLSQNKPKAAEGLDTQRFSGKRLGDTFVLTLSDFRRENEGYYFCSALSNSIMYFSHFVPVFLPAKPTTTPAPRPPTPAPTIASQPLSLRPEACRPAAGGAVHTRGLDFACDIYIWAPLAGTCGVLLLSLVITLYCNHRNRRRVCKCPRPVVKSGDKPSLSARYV
T1 sequence (chain, as listed by the source): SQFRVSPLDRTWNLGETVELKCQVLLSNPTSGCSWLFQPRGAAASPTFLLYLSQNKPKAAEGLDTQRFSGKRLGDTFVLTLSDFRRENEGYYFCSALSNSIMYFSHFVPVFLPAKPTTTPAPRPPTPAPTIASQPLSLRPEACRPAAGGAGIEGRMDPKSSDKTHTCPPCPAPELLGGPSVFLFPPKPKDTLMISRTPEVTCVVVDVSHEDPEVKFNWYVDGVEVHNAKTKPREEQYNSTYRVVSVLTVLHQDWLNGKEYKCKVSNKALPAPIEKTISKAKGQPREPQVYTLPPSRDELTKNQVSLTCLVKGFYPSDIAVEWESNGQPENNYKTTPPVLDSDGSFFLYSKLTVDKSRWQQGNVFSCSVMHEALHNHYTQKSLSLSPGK
T3 sequence (P01732 22-182): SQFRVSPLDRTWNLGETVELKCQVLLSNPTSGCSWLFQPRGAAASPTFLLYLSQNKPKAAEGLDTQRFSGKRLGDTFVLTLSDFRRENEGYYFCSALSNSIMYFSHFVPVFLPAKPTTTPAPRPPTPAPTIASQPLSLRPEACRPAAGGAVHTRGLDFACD

- Relative activity (%) (CD8α-Fc fusion protein [1]): 322%
- Relative activity of CD8α-cHis-NaHCO3 (%) (CD8α-Fc fusion protein [2]): 76%
- IC50 [3]: 3.02 nM
- IC50 (read off the curve) [3]: ~3 nM
- Positive rate (%) [4]: 99.8%
- IC50 [5]: ~3 nM
- EC50 (CD8α-Fc fusion protein [6]): 0.989 ng/mL
- Kd (CD8α-cHis fusion protein): 0.644 nM
- koff (CD8α-cHis fusion protein): 0.000311 s⁻¹
- kon (CD8α-cHis fusion protein): 483000 M⁻¹ s⁻¹
B1: C37-cHis antibody (VHH)
VHH: QLQLVESGGGLVQAGGSLRLSCAASGLTFEDYAIGWFRQAPGKEREGISCIRIYDGNTYSAESVKGRFTISSDNAKNQVYLQINTLKPEDTAVYYCAAGSYYSCSVYPDYDMDYWGKGTLVTVSS
notes: HEK293 construct; an E. coli preparation is also described; Biotinylated for the ForteBio assay; also called C37-his; SNA006a
